{"source": "patent US20060079445A1", "about": "“CaMKII/calcium channel binding-related compositions and methods” (priority 2004, published 2006)", "key": {"[1]": {"system": "L-type Ca^2+ currents in cerebellar granule cells", "test": "Patch-clamp of Ca2+-dependent facilitation of L-type currents in cerebellar granule cells", "type": "cell-based, C57/BL6 mouse", "conditions": "2 μM peptide in patch pipette; Ca^2+ charge carrier; train of five pulses; without peptide facilitation ~50%", "procedure": "Dissociated cerebellar granule cells were prepared from 7-day old C57/BL6 mouse cerebella and grown in culture by a published protocol (Piedras-Renteria and Tsien, 1998; Randall and Tsien, 1995). The cerebellar granule cells were maintained in Minimal Essential Medium (Invitrogen) supplemented with 10% fetal bovine serum, glucose 5 mg/liter, transferrin 100 mg/liter, insulin 25 mg/liter, glutamine 300 mg/liter, and potassium chloride 20 mM. Cells were plated on Matrigel (Collaborative Biomedical Product) treated glass coverslips in 24-well chambers and maintained in a humidified, 37° C. incubator with […]/5% CO2. Cells were maintained for 6 to 9 days in culture prior to electrophysiological experiments. […]\nCerebellar granule cells, identified on the basis of morphology and size, comprised >90% of the cells in the primary culture. […] Voltage-gated Ca^2+ and Ba^2+ currents were recorded from cells depolarized to 0 mV with five 20 ms pulses (50 ms interpulse interval) from a −90 mV holding potential. […]"}, "[2]": {"molecular_target": "T1, autophosphorylated α-CaMKII / α1C amino acids 1581-1690 (Rattus norvegicus, UniProt P11275)", "T1 construct": "made in house; GST fusion proteins from bacterial lysates", "test": "GST pull down of autophosphorylated α-CaMKII with α1C aa 1581-1690, peptide competition", "type": "binding", "conditions": "40 μM peptide; 20 nM α-CaMKII", "procedure": "(B) Immunoblot with CBα2 after GST pull down of purified autophosphorylated α-CaMKII (20 nM), using α1C amino acids 1581-1690 fused to GST. Pull down assay performed in the presence of 40 μM of the indicated peptide or the peptide diluent DMSO. (C) Immunoblots with CBα2 or an anti-CaM antibody after a GST pull down assay, using α1C amino acids 1581-1690 (WT), a ^1644TVGKFY^1649→EEDAAA mutant (Mut6), or GST alone, of purified autophosphorylated CaMKII (left) or CaM (right). Top panels show a Ponceau stain of each fusion protein. […] Asterisk indicates p<0.001 for a one-way analysis of variance followed by a Dunnett's test to identify specific pair-wise differences between the means for Mut6 vs. wt and GST vs. wt, n=4-8. […] Top panels show a Ponceau stain of each fusion protein.\nThe binding reactions were accomplished in Tris binding buffer (50 mM Tris, 150 mM NaCl, 0.1% T-20 at pH 7.4 ml plus 0.1% BSA) containing 20 nM purified CaMKII. The total protein from the HEK293 cell lysates added to each binding reaction ranged from 9-22 μg, determined by normalizing for the amount of CaMKII activity (Singla et al., 2001). Pre-autophosphorylayion of CaMKII (purified and lysate) was accomplished at 4° C. for 5 min in Tris binding buffer plus 1 mM CaCl2, 5 μM CaM, 1 mM ATP, and 5 mM MgCl2 to restrict the sites of autophosphorylation to primarily Thr286 (Ikeda et al., 1991; Lai et al., 1987; Lou and Schulman, 1989). Final concentration of these components in the binding reaction (1:40) was 0.025 mM CaCl2, 0.125 μM CaM, 0.025 mM ATP, and 0.125 MM MgCl2. The binding reaction was rocked for 1 h at 4° C. and the beads extensively washed in Tris binding buffer (2-3× for 5 mins each). Immunoblots were performed multiple times with identical results and Ponceau staining was always performed to ensure equal loading and transfer. CaMKII binding was quantified using densiotometric measurement of band intensity using KODAK 1D Image Analysis Software (Eastman Kodak, Company). […]"}, "[3]": {"molecular_target": "T2, cloned L-type channels (subunit α1C77) (Homo sapiens, UniProt Q13936)", "T2 construct": "expressed in transfected cells; host or cells: HEK293 stably transfected with α2-δ and β1C (HEKα2β1), transiently transfected with α1C77 and GFP", "T2 sequence (Q13936 1-2138 isoform Q13936-20)": "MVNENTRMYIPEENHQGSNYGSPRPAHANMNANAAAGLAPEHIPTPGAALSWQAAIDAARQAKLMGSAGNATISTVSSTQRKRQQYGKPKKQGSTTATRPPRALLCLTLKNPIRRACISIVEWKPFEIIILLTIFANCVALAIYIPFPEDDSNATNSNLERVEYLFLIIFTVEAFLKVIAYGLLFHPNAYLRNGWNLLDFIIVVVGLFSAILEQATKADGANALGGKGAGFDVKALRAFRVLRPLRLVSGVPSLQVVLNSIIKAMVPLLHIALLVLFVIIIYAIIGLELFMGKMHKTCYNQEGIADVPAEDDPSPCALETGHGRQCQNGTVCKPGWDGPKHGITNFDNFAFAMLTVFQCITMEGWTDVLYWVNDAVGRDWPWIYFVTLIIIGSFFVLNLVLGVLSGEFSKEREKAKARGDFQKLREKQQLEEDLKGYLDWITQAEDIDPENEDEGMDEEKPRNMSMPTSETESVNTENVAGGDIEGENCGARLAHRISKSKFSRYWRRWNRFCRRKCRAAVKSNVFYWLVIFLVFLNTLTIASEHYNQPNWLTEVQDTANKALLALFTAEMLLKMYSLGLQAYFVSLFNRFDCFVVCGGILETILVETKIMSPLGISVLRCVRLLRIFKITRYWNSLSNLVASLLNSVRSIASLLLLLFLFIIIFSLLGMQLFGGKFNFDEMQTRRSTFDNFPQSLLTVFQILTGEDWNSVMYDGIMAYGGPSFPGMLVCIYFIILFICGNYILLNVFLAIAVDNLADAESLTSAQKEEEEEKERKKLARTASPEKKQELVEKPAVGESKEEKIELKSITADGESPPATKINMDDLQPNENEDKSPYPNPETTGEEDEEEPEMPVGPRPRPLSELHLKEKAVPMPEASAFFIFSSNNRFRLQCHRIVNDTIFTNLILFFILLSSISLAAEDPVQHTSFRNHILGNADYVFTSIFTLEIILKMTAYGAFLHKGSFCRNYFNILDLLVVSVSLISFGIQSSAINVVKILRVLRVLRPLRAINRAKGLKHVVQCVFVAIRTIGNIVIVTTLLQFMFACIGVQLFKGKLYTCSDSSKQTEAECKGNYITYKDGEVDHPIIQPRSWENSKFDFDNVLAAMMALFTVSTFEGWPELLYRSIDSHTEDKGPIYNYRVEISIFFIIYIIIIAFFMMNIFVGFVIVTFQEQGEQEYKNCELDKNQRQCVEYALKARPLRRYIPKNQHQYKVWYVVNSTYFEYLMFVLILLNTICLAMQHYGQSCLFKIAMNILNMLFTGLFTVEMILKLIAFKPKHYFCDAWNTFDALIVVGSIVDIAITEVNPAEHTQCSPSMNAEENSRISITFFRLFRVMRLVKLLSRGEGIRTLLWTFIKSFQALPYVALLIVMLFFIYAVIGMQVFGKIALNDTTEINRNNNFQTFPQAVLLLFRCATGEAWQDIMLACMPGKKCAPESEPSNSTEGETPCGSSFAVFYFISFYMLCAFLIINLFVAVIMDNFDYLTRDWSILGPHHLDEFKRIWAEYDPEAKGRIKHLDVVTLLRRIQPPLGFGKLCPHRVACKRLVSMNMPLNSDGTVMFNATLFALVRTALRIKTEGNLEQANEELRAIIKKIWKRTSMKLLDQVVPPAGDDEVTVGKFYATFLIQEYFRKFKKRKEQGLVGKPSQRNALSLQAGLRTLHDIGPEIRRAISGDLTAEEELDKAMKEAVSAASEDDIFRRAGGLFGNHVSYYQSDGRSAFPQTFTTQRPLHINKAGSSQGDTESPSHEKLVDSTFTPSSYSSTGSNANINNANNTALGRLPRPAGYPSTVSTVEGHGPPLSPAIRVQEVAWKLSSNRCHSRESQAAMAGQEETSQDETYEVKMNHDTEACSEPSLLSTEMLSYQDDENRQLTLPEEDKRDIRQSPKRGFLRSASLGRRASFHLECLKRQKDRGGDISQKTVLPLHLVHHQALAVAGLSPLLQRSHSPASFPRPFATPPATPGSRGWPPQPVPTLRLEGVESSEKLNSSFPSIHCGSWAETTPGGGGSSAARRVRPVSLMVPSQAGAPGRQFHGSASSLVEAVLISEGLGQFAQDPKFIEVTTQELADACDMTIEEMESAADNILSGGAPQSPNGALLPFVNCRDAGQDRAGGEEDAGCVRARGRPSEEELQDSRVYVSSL", "T2 sequence (Q02641 whole entry partner)": "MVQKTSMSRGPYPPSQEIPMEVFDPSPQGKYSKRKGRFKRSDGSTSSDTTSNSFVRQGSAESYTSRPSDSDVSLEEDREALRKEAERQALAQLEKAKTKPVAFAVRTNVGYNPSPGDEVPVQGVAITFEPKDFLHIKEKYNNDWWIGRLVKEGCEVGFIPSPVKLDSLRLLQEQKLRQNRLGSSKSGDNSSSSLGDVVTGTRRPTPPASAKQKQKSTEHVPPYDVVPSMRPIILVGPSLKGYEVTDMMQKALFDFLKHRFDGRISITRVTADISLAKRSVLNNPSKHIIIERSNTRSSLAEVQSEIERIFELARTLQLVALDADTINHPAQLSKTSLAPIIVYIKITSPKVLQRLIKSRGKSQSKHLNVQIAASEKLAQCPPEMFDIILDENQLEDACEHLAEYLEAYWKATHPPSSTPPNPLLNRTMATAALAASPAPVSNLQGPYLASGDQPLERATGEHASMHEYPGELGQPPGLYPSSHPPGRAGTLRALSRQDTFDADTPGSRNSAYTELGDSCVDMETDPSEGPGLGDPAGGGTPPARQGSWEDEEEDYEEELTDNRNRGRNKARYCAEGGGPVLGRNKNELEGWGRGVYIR", "T2 sequence (P54289 25-946 partner limits assumed)": "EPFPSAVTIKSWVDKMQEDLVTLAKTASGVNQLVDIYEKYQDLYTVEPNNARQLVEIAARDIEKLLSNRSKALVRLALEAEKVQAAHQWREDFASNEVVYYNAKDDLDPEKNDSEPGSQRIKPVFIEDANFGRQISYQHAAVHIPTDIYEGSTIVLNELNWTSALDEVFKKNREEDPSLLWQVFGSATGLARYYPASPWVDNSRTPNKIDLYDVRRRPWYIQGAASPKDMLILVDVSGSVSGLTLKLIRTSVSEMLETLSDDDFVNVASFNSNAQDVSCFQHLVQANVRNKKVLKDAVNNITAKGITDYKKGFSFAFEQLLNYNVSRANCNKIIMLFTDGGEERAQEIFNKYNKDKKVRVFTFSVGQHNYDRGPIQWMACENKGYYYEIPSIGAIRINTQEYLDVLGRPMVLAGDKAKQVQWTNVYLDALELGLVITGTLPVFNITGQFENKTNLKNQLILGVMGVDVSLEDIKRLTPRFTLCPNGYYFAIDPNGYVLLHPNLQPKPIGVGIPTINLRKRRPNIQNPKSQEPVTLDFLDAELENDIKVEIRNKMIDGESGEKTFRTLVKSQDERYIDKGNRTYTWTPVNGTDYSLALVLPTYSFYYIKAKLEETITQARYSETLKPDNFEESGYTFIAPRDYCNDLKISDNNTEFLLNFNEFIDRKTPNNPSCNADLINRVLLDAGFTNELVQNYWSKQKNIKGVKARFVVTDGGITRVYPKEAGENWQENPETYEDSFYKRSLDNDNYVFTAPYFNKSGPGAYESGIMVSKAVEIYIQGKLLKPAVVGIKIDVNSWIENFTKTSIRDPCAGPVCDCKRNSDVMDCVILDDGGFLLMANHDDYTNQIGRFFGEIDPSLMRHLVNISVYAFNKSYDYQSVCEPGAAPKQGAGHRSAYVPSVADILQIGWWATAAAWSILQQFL", "T2 sequence (P54289 947-1103 partner limits assumed)": "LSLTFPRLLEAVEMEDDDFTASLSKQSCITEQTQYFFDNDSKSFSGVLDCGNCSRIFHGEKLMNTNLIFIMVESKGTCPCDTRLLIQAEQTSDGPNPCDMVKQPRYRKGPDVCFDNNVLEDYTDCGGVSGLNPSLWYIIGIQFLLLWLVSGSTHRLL", "test": "Check for use-dependence of diltiazem block of cloned L-type channels", "type": "cell-based", "conditions": "100 μM; same solutions and voltage protocol as granule cells", "procedure": "Dissociated cerebellar granule cells were prepared from 7-day old C57/BL6 mouse cerebella and grown in culture by a published protocol (Piedras-Renteria and Tsien, 1998; Randall and Tsien, 1995). The cerebellar granule cells were maintained in Minimal Essential Medium (Invitrogen) supplemented with 10% fetal bovine serum, glucose 5 mg/liter, transferrin 100 mg/liter, insulin 25 mg/liter, glutamine 300 mg/liter, and potassium chloride 20 mM. Cells were plated on Matrigel (Collaborative Biomedical Product) treated glass coverslips in 24-well chambers and maintained in a humidified, 37° C. incubator with […]/5% CO2. Cells were maintained for 6 to 9 days in culture prior to electrophysiological experiments. HEK293 cells stably transfected with the α2-δ and β1C subunits (HEKα2β1) were grown in Dulbecco's Modified Eagle's Medium containing 10% v/v calf serum, penicillin (100 units/ml), streptomycin (100 μg/ml), and kept under positive selection with Geneticin (400 μg/ml) while being maintained as described above. cDNAs encoding the α1C77 subunit (Zühlke and Reuter, 1998) and the green fluorescent protein were transiently transfected into HEKα2β1 cells by using the Lipofectamine2000 reagent (Invitrogen). Electrophysiological experiments were performed >24 hrs after transfection."}}}
{"molecule": "KKALRRQEAVDAL [autocamtide-2-related inhibitory peptide]", "values": [{"measurement": "decrease in peak L-type current over the course of the depolarizing pulse train", "setting": "[1]", "result": "~25", "unit": "%"}]}
{"molecule": "1639-1660: ~22 aa peptide generated from α1C residues 1639-1660, contains TVGKFY (KIWKRTSMKLLDQVVPPAGDDE; UniProt Q13936 1639-1660, looked up, fragment)", "values": [{"measurement": "interaction of autophosphorylated CaMKII with the 1581-1690 fusion protein", "setting": "[2]", "result": "dramatically reduced"}]}
{"molecule": "1615-1636: ~22 aa peptide of α1C residues 1615-1636, site important for tethering of apoCaM (RTALRIKTEGNLEQANEELRAI; UniProt Q13936 1615-1636, looked up, fragment)", "values": [{"measurement": "interaction of autophosphorylated CaMKII with the 1581-1690 fusion protein", "setting": "[2]", "result": "not inhibited"}]}
{"molecule": "1589-1610: ~22 aa peptide of α1C residues 1589-1610, site important for tethering of apoCaM (KRLVSMNMPLNSDGTVMFNATL; UniProt Q13936 1589-1610, looked up, fragment)", "values": [{"measurement": "interaction of autophosphorylated CaMKII with the 1581-1690 fusion protein", "setting": "[2]", "result": "not inhibited"}]}
{"molecule": "COc1ccc([C@@H]2Sc3ccccc3N(CCN(C)C)C(=O)[C@@H]2OC(C)=O)cc1", "note": "[diltiazem]", "values": [{"measurement": "use-dependence of block of calcium currents", "setting": "[3]", "result": "none were found"}]}
